What was measured:
Details in all cases: 20 nM; 72 h
MCF10A [1] = assay: percent viability (nuclei count relative to siNT); higher = more viable cells
Description: (§1)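 After 72 h, cells were fixed and stained with Hoechst and anti-fibrillarin, and nucleoli per nucleus were counted with CellProfiler. Values are plate-adjusted percent effect for the one-nucleolus and 5+ nucleoli phenotypes, normalised to siNT (0%) and to the positive controls siNOL11 or siKIF11 (100%), as the mean of biological triplicates. Percent viability is the nuclei count relative to siNT.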

MCF10A [2] = assay: 5+ nucleoli phenotype percent effect (relative to siNT 0% and siKIF11 100%); higher = more cells with five or more nucleoli
Description: as §1

MCF10A [3] = assay: one-nucleolus phenotype percent effect (relative to siNT 0% and siNOL11 100%); higher = more cells with one nucleolus (ribosome biogenesis inhibition)
Description: as §1

Sequence: GAAUAUGGGUAUAUUAGUUUGG [hsa-miR-5583-3p]
- percent viability (MCF10A [1]): 65.4%
- 5+ nucleoli phenotype percent effect (MCF10A [2]): 43.7%
- one-nucleolus phenotype percent effect (MCF10A [3]): -14.1%

Sequence: UCGUGUCUUGUGUUGCAGCCGG [hsa-miR-187-3p]
- percent viability (MCF10A [1]): 87.7%
- 5+ nucleoli phenotype percent effect (MCF10A [2]): -1.49%
- one-nucleolus phenotype percent effect (MCF10A [3]): -7.21%

Sequence: CGUGUCUUCUGGCUUGAU [hsa-miR-4711-3p]
- percent viability (MCF10A [1]): 17.8%
- 5+ nucleoli phenotype percent effect (MCF10A [2]): -36.9%
- one-nucleolus phenotype percent effect (MCF10A [3]): 59.2%

Sequence: CAAGCUUGUAUCUAUAGGUAUG [hsa-miR-100-3p]
- percent viability (MCF10A [1]): 77.2%
- 5+ nucleoli phenotype percent effect (MCF10A [2]): 19.2%
- one-nucleolus phenotype percent effect (MCF10A [3]): -5.48%

Sequence: CUGGGAUCUCCGGGGUCUUGGUU [hsa-miR-769-3p]
- percent viability (MCF10A [1]): 40.7%
- 5+ nucleoli phenotype percent effect (MCF10A [2]): -14.5%
- one-nucleolus phenotype percent effect (MCF10A [3]): 18%

Sequence: AAUCCCAAUGCUAGACCCGGUG [hsa-miR-4733-5p]
- percent viability (MCF10A [1]): 19.5%
- 5+ nucleoli phenotype percent effect (MCF10A [2]): 2.55%
- one-nucleolus phenotype percent effect (MCF10A [3]): 2.5%

Sequence: GUACCUUCUGGUUCAGCUAGU [hsa-miR-4724-3p]
- percent viability (MCF10A [1]): 82.8%
- 5+ nucleoli phenotype percent effect (MCF10A [2]): 19.8%
- one-nucleolus phenotype percent effect (MCF10A [3]): -22.1%

Sequence: GAUUGAGACUAGUAGGGCUAGGC [hsa-miR-4461]
- percent viability (MCF10A [1]): 31.4%
- 5+ nucleoli phenotype percent effect (MCF10A [2]): -3.16%
- one-nucleolus phenotype percent effect (MCF10A [3]): 3.4%

Sequence: UGCCCCAACAAGGAAGGACAAG [hsa-miR-5699-5p]
- percent viability (MCF10A [1]): 43.1%
- 5+ nucleoli phenotype percent effect (MCF10A [2]): 43.5%
- one-nucleolus phenotype percent effect (MCF10A [3]): -18.9%

Sequence: AAAGGUCAUUGUAAGGUUAAUGC [hsa-miR-3974]
- percent viability (MCF10A [1]): 39.8%
- 5+ nucleoli phenotype percent effect (MCF10A [2]): -42%
- one-nucleolus phenotype percent effect (MCF10A [3]): 63.7%

Sequence: GAAGGACCUGCACCUUCG [hsa-miR-6816-3p]
- percent viability (MCF10A [1]): 35.3%
- 5+ nucleoli phenotype percent effect (MCF10A [2]): -36.7%
- one-nucleolus phenotype percent effect (MCF10A [3]): 49.8%

Sequence: ACUGAUUAUCUUAACUCUCUGA [hsa-miR-3920]
- percent viability (MCF10A [1]): 82%
- 5+ nucleoli phenotype percent effect (MCF10A [2]): 38.1%
- one-nucleolus phenotype percent effect (MCF10A [3]): -37.8%

Sequence: AAGAGAGGAGCAGUGGUGCUGUGG [hsa-miR-6856-5p]
- percent viability (MCF10A [1]): 52.1%
- 5+ nucleoli phenotype percent effect (MCF10A [2]): -5.13%
- one-nucleolus phenotype percent effect (MCF10A [3]): 0.793%

Sequence: AAGCUGCCAGUUGAAGAACUGU [hsa-miR-22-3p]
- percent viability (MCF10A [1]): 35.3%
- 5+ nucleoli phenotype percent effect (MCF10A [2]): 8.61%
- one-nucleolus phenotype percent effect (MCF10A [3]): -3.65%

Sequence: GGGCUGGGGCGCGGGGAGGU [hsa-miR-5787]
- percent viability (MCF10A [1]): 150%
- 5+ nucleoli phenotype percent effect (MCF10A [2]): 60.6%
- one-nucleolus phenotype percent effect (MCF10A [3]): -30.8%

Sequence: UCUGUGAUAGAGAUUCUUUGCU [hsa-miR-4679]
- percent viability (MCF10A [1]): 103%
- 5+ nucleoli phenotype percent effect (MCF10A [2]): 8.51%
- one-nucleolus phenotype percent effect (MCF10A [3]): -10.8%

Sequence: ACCUUCUUGUAUAAGCACUGUGCUAAA [hsa-miR-1248]
- percent viability (MCF10A [1]): 96.5%
- 5+ nucleoli phenotype percent effect (MCF10A [2]): 33.1%
- one-nucleolus phenotype percent effect (MCF10A [3]): -15.4%

Sequence: AGUUUUGCAGGUUUGCAUUUCA [hsa-miR-19b-2-5p]
- percent viability (MCF10A [1]): 96.7%
- 5+ nucleoli phenotype percent effect (MCF10A [2]): -10.8%
- one-nucleolus phenotype percent effect (MCF10A [3]): 21.2%

Sequence: UUUCAAGCCAGGGGGCGUUUUUC [hsa-miR-498]
- percent viability (MCF10A [1]): 61%
- 5+ nucleoli phenotype percent effect (MCF10A [2]): 23.7%
- one-nucleolus phenotype percent effect (MCF10A [3]): -7.63%

Sequence: ACCCCACUCCUGGUACC [hsa-miR-4286]
- percent viability (MCF10A [1]): 48.7%
- 5+ nucleoli phenotype percent effect (MCF10A [2]): 39.7%
- one-nucleolus phenotype percent effect (MCF10A [3]): -13.8%

Sequence: UUCUCCAAAAGGGAGCACUUUC [hsa-miR-519e-5p]
- percent viability (MCF10A [1]): 39.5%
- 5+ nucleoli phenotype percent effect (MCF10A [2]): 4.42%
- one-nucleolus phenotype percent effect (MCF10A [3]): -3.64%

Sequence: CAUGGGAGUUCGGGGUGGUUGC [hsa-miR-6871-5p]
- percent viability (MCF10A [1]): 25.6%
- 5+ nucleoli phenotype percent effect (MCF10A [2]): 5.7%
- one-nucleolus phenotype percent effect (MCF10A [3]): 14.1%

Sequence: GGCGCGCCCAGCUCCCGGGCU [hsa-miR-4783-5p]
- percent viability (MCF10A [1]): 90.3%
- 5+ nucleoli phenotype percent effect (MCF10A [2]): 28%
- one-nucleolus phenotype percent effect (MCF10A [3]): -16.4%

Sequence: CCCUGAGACCCUAACCUUAA [hsa-miR-4324]
- percent viability (MCF10A [1]): 84%
- 5+ nucleoli phenotype percent effect (MCF10A [2]): 38.6%
- one-nucleolus phenotype percent effect (MCF10A [3]): -27%

From the supplement of paper PMC10899765
